In test [1] the target is T1, huIL-18Rβ-HisAvi (human, UniProt O95256 20-356, biotinylated in the Octet blocking assay).
T1 construct: Soluble analyte in all SPR runs; captured on streptavidin sensors in the Octet assay; also called human IL-18Rβ; human IL-18Rβ-Avi-His
T1 sequence: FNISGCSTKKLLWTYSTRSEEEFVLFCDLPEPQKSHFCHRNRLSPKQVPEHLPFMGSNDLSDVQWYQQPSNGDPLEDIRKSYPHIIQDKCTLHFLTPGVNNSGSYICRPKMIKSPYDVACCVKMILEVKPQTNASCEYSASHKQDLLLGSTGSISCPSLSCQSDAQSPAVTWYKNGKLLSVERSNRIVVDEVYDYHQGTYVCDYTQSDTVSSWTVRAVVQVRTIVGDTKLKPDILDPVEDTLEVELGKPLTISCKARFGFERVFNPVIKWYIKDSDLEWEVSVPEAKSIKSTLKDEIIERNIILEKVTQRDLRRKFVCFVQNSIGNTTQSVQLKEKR
The test is described as follows: SPR T200, mAb on anti-hFc, 37C, pH 6.

Test [2] deals with T2, cyIL-18Rβ-HisAvi (cynomolgus monkey).
T2 construct: Soluble analyte in SPR; also called cyno IL-18Rβ; cynomolgus monkey IL-18Rβ
T2 chain: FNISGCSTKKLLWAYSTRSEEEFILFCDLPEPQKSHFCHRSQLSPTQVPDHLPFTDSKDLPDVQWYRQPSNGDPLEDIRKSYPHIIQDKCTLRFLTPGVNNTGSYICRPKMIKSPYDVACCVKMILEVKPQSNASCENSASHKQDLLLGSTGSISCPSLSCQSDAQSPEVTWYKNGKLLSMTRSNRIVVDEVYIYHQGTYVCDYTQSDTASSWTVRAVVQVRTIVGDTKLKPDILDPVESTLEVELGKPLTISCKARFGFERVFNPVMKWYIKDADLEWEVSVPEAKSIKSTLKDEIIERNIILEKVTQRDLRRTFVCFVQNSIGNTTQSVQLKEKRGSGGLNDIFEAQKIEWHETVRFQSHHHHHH
The test is described as follows: SPR T200, mAb on anti-hFc, 37C, pH 6.

A further test has as its target T3, human IL-18Rβ on cells (human, UniProt O95256 20-599).
T3 sequence: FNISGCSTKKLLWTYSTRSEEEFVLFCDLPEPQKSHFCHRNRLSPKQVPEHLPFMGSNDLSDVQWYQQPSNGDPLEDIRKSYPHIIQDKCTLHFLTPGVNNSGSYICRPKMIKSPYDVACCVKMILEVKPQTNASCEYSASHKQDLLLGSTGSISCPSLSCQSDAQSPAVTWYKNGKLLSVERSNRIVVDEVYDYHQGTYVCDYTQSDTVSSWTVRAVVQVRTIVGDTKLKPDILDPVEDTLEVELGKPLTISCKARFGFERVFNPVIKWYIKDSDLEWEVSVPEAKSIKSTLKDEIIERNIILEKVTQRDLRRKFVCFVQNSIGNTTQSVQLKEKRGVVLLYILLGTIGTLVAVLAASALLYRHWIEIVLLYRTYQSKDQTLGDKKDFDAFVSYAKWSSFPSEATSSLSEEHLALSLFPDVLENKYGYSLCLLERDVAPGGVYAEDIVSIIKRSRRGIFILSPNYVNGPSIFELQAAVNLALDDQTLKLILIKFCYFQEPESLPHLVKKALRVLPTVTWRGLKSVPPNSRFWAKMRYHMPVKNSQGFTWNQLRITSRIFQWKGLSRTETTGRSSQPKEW
The test is described as follows: cell-based or functional assay.

Test [3] has as its target T1, huIL-18Rβ-HisAvi. The test can be described thus: SPR T200, mAb on anti-hFc, 37C, pH 7.4.
Test [4] has as its target T2, cyIL-18Rβ-HisAvi. The test is described as follows: SPR T200, mAb on anti-hFc, 37C, pH 7.4.

B1: P21-V2 (antibody, human IgG1, kappa, name in Kabat numbering)
heavy: QVQLQQSGPGLVKPSETLSLTCTVSGGSISNYYWTWIRQPPGKGLEWIGYISDSGSTNYNPSLKSRVTISVDTSKNQFSLKLSSVTAADTAVYYCARETIVVRGFYFYVMDVWGQGTTVTVSSASTKGPSVFPLAPSSKSTSGGTAALGCLVKDYFPEPVTVSWNSGALTSGVHTFPAVLQSSGLYSLSSVVTVPSSSLGTQTYICNVNHKPSNTKVDKRVEPKSCDKTHTCPPCPAPEAEGAPSVFLFPPKPKDTLMISRTPEVTCVVVDVSHEDPEVKFNWYVDGVEVHNAKTKPREEQYNSTYRVVSVLTVLHQDWLNGKEYKCKVSNKALPAPIEKTISKAKGQPREPQVYTLPPSREEMTKNQVSLTCLVKGFYPSDIAVEWESNGQPENNYKTTPPVLDSDGSFFLYSKLTVDKSRWQQGNVFSCSVMHEALHNHYTQKSLSLSPG
light: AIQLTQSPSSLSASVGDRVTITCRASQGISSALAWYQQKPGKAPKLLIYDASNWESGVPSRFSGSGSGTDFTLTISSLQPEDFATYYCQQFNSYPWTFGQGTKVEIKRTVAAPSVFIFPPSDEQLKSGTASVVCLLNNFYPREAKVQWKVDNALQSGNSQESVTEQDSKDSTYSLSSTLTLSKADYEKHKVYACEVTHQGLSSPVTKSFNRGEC
notes: built from the chains of the parent P21 with the printed mutation
What is called Kd is the constant that tells how readily two partners part at equilibrium. Broadly, the koff is the first-order rate constant of dissociation. Higher therefore signals fast dissociation. One may read the kon as the second-order rate constant of association. Higher therefore signals faster complex formation. B1: the dissociation constant Kd in the test with huIL-18Rβ-HisAvi [1] was found to be 0.7 nM; with cyIL-18Rβ-HisAvi [2], 14 nM; in the test with huIL-18Rβ-HisAvi [3], 2.3 nM; in the test with cyIL-18Rβ-HisAvi [4], 22 nM. Also, the koff turned out to be 0.00043 s⁻¹ with huIL-18Rβ-HisAvi [1], 0.0022 s⁻¹ in the test with cyIL-18Rβ-HisAvi [2], 0.00053 s⁻¹ with huIL-18Rβ-HisAvi [3] and 0.0032 s⁻¹ with cyIL-18Rβ-HisAvi [4]. For the same molecule, the kon is 610000 M⁻¹ s⁻¹ in the test with huIL-18Rβ-HisAvi [1], 160000 M⁻¹ s⁻¹ with cyIL-18Rβ-HisAvi [2], 230000 M⁻¹ s⁻¹ in the test with huIL-18Rβ-HisAvi [3] and 150000 M⁻¹ s⁻¹ with cyIL-18Rβ-HisAvi [4]. Also, the “IC50, LPS+IL-12 dependent IFNg production, human whole blood” value (shortened to “IC50 … human whole blood”) in the test with human IL-18Rβ on cells turned out to be 1.65 nM.

B2: P8-V2 (antibody, human IgG1, kappa, name in Kabat numbering)
heavy: QVQLVQSGAEVKKPGASVKVSCKASGYTFTSYYMHWVRQAPGQGLEWMGIINPRGGYTTYAQKFQGRVTMTRDTSTSTVYMELSSLRSEDTAVYYCAKEGRVSPTDYYGMDVWGQGTTVTVSSASTKGPSVFPLAPSSKSTSGGTAALGCLVKDYFPEPVTVSWNSGALTSGVHTFPAVLQSSGLYSLSSVVTVPSSSLGTQTYICNVNHKPSNTKVDKRVEPKSCDKTHTCPPCPAPEAEGAPSVFLFPPKPKDTLMISRTPEVTCVVVDVSHEDPEVKFNWYVDGVEVHNAKTKPREEQYNSTYRVVSVLTVLHQDWLNGKEYKCKVSNKALPAPIEKTISKAKGQPREPQVYTLPPSREEMTKNQVSLTCLVKGFYPSDIAVEWESNGQPENNYKTTPPVLDSDGSFFLYSKLTVDKSRWQQGNVFSCSVMHEALHNHYTQKSLSLSPG
light: not shown
notes: built from the chains of the parent P8 with the printed mutations
In the test with huIL-18Rβ-HisAvi [1], B2 registered a Kd of 0.18 nM, a koff of 0.00028 s⁻¹ and a kon of 1.6e+06 M⁻¹ s⁻¹. The “IC50 … human whole blood” value with human IL-18Rβ on cells amounted to 0.87 nM. Also, in the test with huIL-18Rβ-HisAvi [3], the Kd stood at 0.73 nM, the koff stood at 0.00049 s⁻¹ and the kon was 680000 M⁻¹ s⁻¹.

B3: P8-V1 (antibody, human IgG1, kappa, V domains shown)
VH: QVQLVQSGAEVKKPGASVKVSCKASGYTFTSYYMHWVRQAPGQGLEWMGIINPRGGYTTYAQKFQGRVTMTRDTSTSTVYMELSSLRSEDTAVYYCAKEGRVSPTDYYGMDVWGQGTTVTVSS
VL: not shown
notes: Variant of P8
In the test with huIL-18Rβ-HisAvi [1], B3 gave a Kd of 0.22 nM, a koff of 0.00028 s⁻¹ and a kon of 1.3e+06 M⁻¹ s⁻¹. In addition, in the test with human IL-18Rβ on cells, the “IC50 … human whole blood” value came out at 1.09 nM. Further, in the test with huIL-18Rβ-HisAvi [3], the Kd stood at 0.8 nM, the koff was 0.00047 s⁻¹ and the kon turned out to be 580000 M⁻¹ s⁻¹.

For the origin of these results see patent US20250230251A1 (Bristol-Myers Squibb, published 2025).
